# From patent publication EP3515493A1 (dated 2019)
# B1: Lym-1 (antibody, V domains shown)
# VH: QLKESGPGLVAPSQSLSITCTISGFSLTSYGVHWVRQPPGKGLEWLVVIWSDGSTTYNSALKSRLSISKDNSKSQVFLKMNSLQTDDTAIYYCASHYGSTLAFASWGHGTLVTVSA
# VL: DIQMTQSPASLSASVGETVTIICRASVNIYSYLAWYQQKQGKSPQLLVYNAKILAEGVPSRFSGSGSGTQFSLKINSLQPEDFGSYYCQHHYGTFTFGSGTKLEIK
# B2: Lym-2 (antibody, V domains shown)
# VH: EVQLEESGGGLVQPGGSMKLSCVASGFTFSNYWMNWVRQSPEKGLEWVAEIRFKSHNYATHFAESVKGRFTISRDDSKSSVYLQMNNLRAEDTGIYYCTRRIGNSDYDWWYFDVWGAGTSVTVSS
# VL: DIVMTQSHKFMSTSVGDRVSVTCKASQNVGNNVAWYQQKPGQSPKVLIYSASYRYSGVPDRFTGSGSGTDFTLTISNVQSEDLAEYFCQQYNTYPFTFGSGTKLEIK
# Assays:
# HLA-DR, human [1] = molecular target: HLA-DR, human (human); assay: Scatchard plot analysis, avidity constant on tonsil lymphocytes
# HLA-DR, human [2] = molecular target: HLA-DR, human (human); assay: Scatchard plot analysis, avidity constant on tumor cell line (Raji cells)
# HLA-DR, human [3] = molecular target: HLA-DR, human (human); assay: Scatchard analysis, normal B cells (Table 11: tonsil lymphocytes) compared with Raji tumor cells
# HLA-DR, human [4] = molecular target: HLA-DR, human (human); assay: Scatchard plot analysis, avidity constant on tumor cell line (ARH-77 myeloma cells)
# HLA-DR, human [5] = molecular target: HLA-DR, human (human); assay: Scatchard analysis, normal B cells (Table 11: tonsil lymphocytes) compared with ARH-77 tumor cells
Binder,"Ka (HLA-DR, human [1])","Ka (HLA-DR, human [2])","fold decrease in binding affinity (normal B cells against tumor cells) (HLA-DR, human [3])","Ka (HLA-DR, human [4])","fold decrease in binding affinity (normal B cells against tumor cells) (HLA-DR, human [5])"
B1,8.8e+07 M⁻¹,4.02e+08 M⁻¹,4 fold,,
B2,1.23e+08 M⁻¹,,,2.33e+08 M⁻¹,2 fold
